Broadly, the Ki is a measure of affinity in units of concentration, obtained from inhibition or displacement. In general, stoichiometry N refers to a count of units in the complex or per binding partner.

For experiment [1], the target named is whole intracellular region of rat PTPRZ (rat PTPRZ-ICR) (rat) (UniProt Q62656). The experiment in a line: inhibition of PTPase catalytic activity.
Experiment [2] has the same target. Kind of experiment: native MS.

Chain of whole intracellular region of rat PTPRZ (rat PTPRZ-ICR) (rat) (Q62656 1699-2316): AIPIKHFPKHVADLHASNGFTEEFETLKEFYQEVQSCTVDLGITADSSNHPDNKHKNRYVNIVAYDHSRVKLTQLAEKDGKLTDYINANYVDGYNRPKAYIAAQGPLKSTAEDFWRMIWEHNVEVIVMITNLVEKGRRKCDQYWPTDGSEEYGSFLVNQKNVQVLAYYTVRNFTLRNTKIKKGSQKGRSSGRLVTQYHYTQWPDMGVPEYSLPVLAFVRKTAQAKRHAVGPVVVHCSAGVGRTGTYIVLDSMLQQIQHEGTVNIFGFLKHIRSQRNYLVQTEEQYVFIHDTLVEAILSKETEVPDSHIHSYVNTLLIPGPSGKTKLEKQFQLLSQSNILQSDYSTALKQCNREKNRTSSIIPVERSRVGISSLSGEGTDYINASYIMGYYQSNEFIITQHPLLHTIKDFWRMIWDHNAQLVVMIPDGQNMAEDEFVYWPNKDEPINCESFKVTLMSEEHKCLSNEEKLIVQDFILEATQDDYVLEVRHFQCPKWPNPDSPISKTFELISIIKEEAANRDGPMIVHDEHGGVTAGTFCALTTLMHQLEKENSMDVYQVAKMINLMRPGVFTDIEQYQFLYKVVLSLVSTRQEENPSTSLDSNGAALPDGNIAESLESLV
Chain of F2Pmp-GIT1_(550–556), non-hydrolyzable pTyr mimetic (F2Pmp)-containing substrate-mimetic inhibitor peptide (Q9Z272 whole entry, looked up, tested part not stated): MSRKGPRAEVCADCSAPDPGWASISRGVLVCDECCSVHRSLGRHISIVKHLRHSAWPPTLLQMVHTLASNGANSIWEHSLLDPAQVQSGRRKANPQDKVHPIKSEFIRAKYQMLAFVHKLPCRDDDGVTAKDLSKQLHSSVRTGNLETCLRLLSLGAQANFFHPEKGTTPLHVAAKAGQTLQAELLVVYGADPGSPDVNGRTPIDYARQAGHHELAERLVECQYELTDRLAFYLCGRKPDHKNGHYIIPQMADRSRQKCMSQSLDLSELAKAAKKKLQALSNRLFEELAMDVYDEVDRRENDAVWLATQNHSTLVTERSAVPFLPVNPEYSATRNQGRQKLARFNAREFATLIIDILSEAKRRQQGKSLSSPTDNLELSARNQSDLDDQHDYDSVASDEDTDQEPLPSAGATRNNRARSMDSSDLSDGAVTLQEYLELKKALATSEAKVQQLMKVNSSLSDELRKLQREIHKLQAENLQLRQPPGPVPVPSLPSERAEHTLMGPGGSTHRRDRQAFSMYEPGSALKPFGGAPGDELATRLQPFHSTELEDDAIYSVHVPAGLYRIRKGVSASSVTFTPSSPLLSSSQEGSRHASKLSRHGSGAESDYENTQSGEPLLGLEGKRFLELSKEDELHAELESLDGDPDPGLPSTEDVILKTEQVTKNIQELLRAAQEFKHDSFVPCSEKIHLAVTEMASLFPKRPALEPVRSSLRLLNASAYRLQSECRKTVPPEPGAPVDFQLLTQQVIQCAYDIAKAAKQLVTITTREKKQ

The substance “F2Pmp-GIT1_(550–556), non-hydrolyzable pTyr mimetic (F2Pmp)-containing substrate-mimetic inhibitor peptide (from UniProt Q9Z272 550-556)” returned a Ki in experiment [1] of 3.1 µM. Further, in experiment [2], the stoichiometry N is 1.

These data come from article doi:10.1101/636423.
